In patent US20240409960A1, “METHOD FOR CONTROLLING PROTEIN FUNCTION” (The University of Tokyo, priority 2021, published 2024):

Key:
Assay type in all cases: cell-based, human
[1] = tested on: StopFluc luciferase reporter gene in HEK293FT cells; test: luciferase-based HDR (Homology-directed repair) assay of Cas9 endonuclease activity
Excerpt: For constructing a luciferase reporter for detecting Cas9 endonuclease activity, the sequence encoding firefly luciferase (Fluc) was amplified from pGL4.31 vector (Promega). The firefly luciferase with an in-flamed stop codon (StopFluc) was produced by an overlapping PCR extension method. The primer (5′-[…]-3′: SEQ ID No: 40) was used for PCR. The Stop-Fluc construct was inserted into the HindII-XhoI site of pcDNA 3.1/V 5-HisA having the CMV promoter. A luciferase donor vector was constructed by inserting the reverse firefly luciferase sequence into the XhoI and HindIII site of the bacterial expression pCold-I vector (Clontech), and was used as donor DNA.
HEK293T cells (American Type Culture Collection: ATCC) were cultured at 37° C. under 5% CO2 in Dulbecco's Modified Eagle Medium (DMEM: Thermo Fisher Scientific) supplemented with 10% fetal bovine serum (FBS: Thermo Fisher Scientific), 100 units/ml of penicillin and 100 μg/ml of streptomycin (Thermo Fisher Scientific) and 2 mM GlutaMAX (Thermo Fisher Scientific).
For luciferase assay, HEK 293 cells were plated at 25,000 cells per well on a 96-well flat clear-bottom microplate (Greiner Bio-One), and were then cultured for 24 hours at 37° C. in 5% CO2. The cells were transfected with cDNAs encoding destabilized Cas9 or an empty vector (negative control) along with the luciferase reporter (StopFluc), donor DNA (Fluc) and Cas9 encoding gRNA, using Lipofectamine 3000 (Thermo Fisher Scientific) at 37° C. The total amount of DNA was 50 ng per well. The transfection ratio of the destabilized Cas9, the luciferase reporter, the donor DNA, and the gRNA was set to be equal (1:1:1:1). […] Bioluminescence measurement was performed for 1 second per well at room temperature using a Centro XS^3 LB 960 plate-reading luminometer (Berthold Technologies).
Full-length Cas9 was used as a positive control. […] Bioluminescence measurement was performed for 1 second per well at room temperature using a Centro XS^3 LB 960 plate-reading luminometer (Berthold Technologies).

[2] = tested on: rox sites (Floxed (rox)-STOP Fluc reporter) in HEK293 cells; test: luciferase assay of Dre-rox DNA recombination in HEK293 cells; details: 5 ng plasmid, TMP 10 nM or 500 nM or DMSO, 24 or 48 hours
Description: (§1) For constructing the luciferase reporters detecting for the activities of Flp-FRT recombinase, VCre-Vlox recombinase and Dre-rox recombinase, the FRT site ([…]: SEQ ID No: 37), the Vlox site ([…]: SEQ ID No: 38), the rox site ([…]: SEQ ID No: 39), were inserted into HindIII and KpnI sites and ClaI and EcoRI sites in the pcDNA3.1 (+) vector of the luciferase reporter (of loxP-stop-loxP-Fluc).
(§2) For luciferase assay, HEK 293 cells were plated at 25,000 cells per well on a 96-well flat white microplate (Thermo Fisher Scientific), and were then cultured for 24 hours at 37° C. in 5% CO2. The cells were transfected with cDNAs encoding destabilized Cre along with the luciferase reporter (loxP-stop-loxP Fluc), using X-tremeGENE9 reagent (Merck Millipore) at 37° C. The total amount of DNA was 50 ng per well. Twenty-four hours after the transfection, TMP or DMSO was added into the cells, and the cells were further cultured for 24 hours or 48 hours. Just before the luciferase assay, the medium was replaced with Hanks' balanced salt solution (HBSS) (Thermo Fisher Scientific) containing 0.2 mM D-luciferin potassium salt. Bioluminescence measurement was performed for 1 second per well at room temperature using a Centro XS^3 LB 960 plate-reading luminometer (Berthold Technologies).

[3] = tested on: Vlox sites (Floxed (Vlox)-STOP Fluc reporter) in HEK293 cells; test: luciferase assay of VCre-Vlox DNA recombination in HEK293 cells; details: 5 ng plasmid, TMP 10 nM or 500 nM or DMSO, 24 or 48 hours
Description: as §1, §2

SPEED-Cas9: split spCas9 (a.a. 2-713 and 714-1,368) tagged with NZ/CZ leucine zippers and DD sequences, joined via P2A; SEQ ID No: 28
background endonuclease activity in the absence of TMP ([1]; 12.5 ng plasmid, DMSO, 48 hours): extremely low background level of endonuclease activity, comparable to that of the negative control group using the pcDNA3.1 empty vector plasmid | TMP-dependent endonuclease activity ([1]; 12.5 ng plasmid, TMP 500 nM, 48 hours): extremely high TMP-dependent endonuclease activity | TMP-dependent endonuclease activity compared with full-length Cas9 ([1]; TMP 500 nM (FIGS. 9d and e)): comparable to that of full-length Cas9

B1: SPEED-Dre: split Dre (a.a. 2-150 and 151-342), single DD on the N-terminal and C-terminal sides; SEQ ID No: 24 (protein)
chain: MVSKYPYDVPDYARSGGSGGMISLIAALAVDYVIGMENAMPWNLPADLAWFKRNTLNKPVIMGRHTWESIGRPLPGRKNIILSSQPSTDDRVTWVKSVDEAIAACGDVPEIMVIGGGRVIEQFLPKAQKLYLTHIDAEVEGDTHFPDYEPDDWESVFSEFHDADAQNSHSYCFEILERRGGSGGSGGKLVPKKKRKVGGSELIISGSSGGFLRNIGKEYQEAAENFMRFMNDQGAYAPNTLRDLRLVFHSWARWCHARQLAWFPISPEMAREYFLQLHDADLASTTIDKHYAMLNMLLSHCGLPPLSDDKSVSLAMRRIRREAATEKGERTGQAIPLRWDDLKLLDVLLGSGSGATNFSLLKQAGDVEENPGPLESRSERLVDLRNRAFLFVAYNTLMRMSEISRIRVGDLDQTGDTVTLHISHTKTITTAAGLDKVLSRRTTAVLNDWLDVSGLREHPDAVLFPPIHRSNKARITTTPLTAPAMEKIFSDAWVLLNKRDATPNKGRYRTWTGHSARVGAAIDMAEKQVSMVEIMQEGTWKKPETLMRYLRRGGVSVGANSRLMDSGGSGGSGGMISLIAALAVDYVIGMENAMPWNLPADLAWFKRNTLNKPVIMGRHTWESIGRPLPGRKNIILSSQPSTDDRVTWVKSVDEAIAACGDVPEIMVIGGGRVIEQFLPKAQKLYLTHIDAEVEGDTHFPDYEPDDWESVFSEFHDADAQNSHSYCFEILERR
modifications: MISC_FEATURE - HAtag; DOMAIN 21..179 Degradation Domain; SIGNAL 190..197 Nuclear Localization Signal; MISC_FEATURE - N-terminal side of Dre; MISC_FEATURE - P2A; MISC_FEATURE - C-terminal side of Dre; DOMAIN 575..733 Degradation Domain; Bacteriophage D6
background and TMP-dependent DNA recombination activity [2]: results similar to those of SPEED-Cre

B2: SPEED-VCre: split VCre (a.a. 2-277 and 278-380), single DD on the N-terminal and C-terminal sides; SEQ ID No: 20 (protein, listed as Vibrio parahaemolyticus)
chain: MVSKYPYDVPDYARSGGSGGMISLIAALAVDYVIGMENAMPWNLPADLAWFKRNTLNKPVIMGRHTWESIGRPLPGRKNIILSSQPSTDDRVTWVKSVDEAIAACGDVPEIMVIGGGRVIEQFLPKAQKLYLTHIDAEVEGDTHFPDYEPDDWESVFSEFHDADAQNSHSYCFEILERRGGSGGSGGKLVPKKKRKVGGIENQLSLLGDFSGVRPDDVKTAIQAAQKKGINVAENEQFKAAFEHLLNEFKKREERYSPNTLRRLESAWTCFVDWCLANHRHSLPATPDTVEAFFIERAEELHRNTLSVYRWAISRVHRVAGCPDPCLDIYVEDRLKAIARKKVREGEAVKQASPFNEQHLLKLTSLWYRSDKLLLRRNLALLAVAYESMLRASELANIRVSDMELAGDGTAILTIPITKTNHSGEPDTCILSQDVVSLLMDYTEAGKLDMSSDGFLFVGVSKHNTCIKPKKDKQTGSGSGATNFSLLKQAGDVEENPGPLEGEVLHKPITTKTVEGVFYSAWETLDLGRQGVKPFTAHSARVGAAQDLLKKGYNTLQIQQSGRWSSGAMVARYGRAILARDGAMAHSRVKTRSAPMQWGKDEKDGGSGGSGGMISLIAALAVDYVIGMENAMPWNLPADLAWFKRNTLNKPVIMGRHTWESIGRPLPGRKNIILSSQPSTDDRVTWVKSVDEAIAACGDVPEIMVIGGGRVIEQFLPKAQKLYLTHIDAEVEGDTHFPDYEPDDWESVFSEFHDADAQNSHSYCFEILERR
modifications: HAtag; DOMAIN 21..179 Degradation Domain; SIGNAL 190..197 Nuclear Localization Signal; MISC_FEATURE - N-terminal side of VCre; MISC_FEATURE - P2A; MISC_FEATURE - C-terminal side of VCre; DOMAIN 613..771 Degradation Domain
background and TMP-dependent DNA recombination activity [3]: results similar to those of SPEED-Cre
